{"source": "patent US20180104307A1", "about": "(University of California, published 2018)", "binders": {"B1": {"name": "GST-GIV-CT (amino acids 1660-1870) (other)", "chain": "ETLESRHHKIKTGSPGSEVVTLQQFLEESNKLTSVQIKSSSQENLLDEVMKSLSVSSDFLGKDKPVSCGLARSVSGKTPGDFYDRRTTKPEFLRPGPRKTEDTYFISSAGKPTPGTQGKIKLVKESSLSRQSKDSNPYATLPRASSVISTAEGTTRRTSIHDFLTKDSRLPISVDSPPAAADSNTTAASNVDKVQESRNSKSRSREQQSS", "notes": "Immobilised on glutathione-agarose beads; also called GST-tagged GIV-CT peptide; not shown: glutathione S-transferase tag"}, "B2": {"name": "TAT-GIV-CT-F1685A (peptide)", "chain": "MRGSHHHHHHGMASMTGGQQMGRDLYDDDDKDRWGSKLGYGRKKRRQRRRGGSTMSGYPYDVPDYAGSMGGSGHSGETLESRHHKIKTGSPGSEVVTLQQALEESNKLTSVQIKSSSQENLLDEVMKSLSVSSDFLGKDKPVSCGLARSVSGKTPGDFYDRRTTKPEFLRPGPRKTEDTYFISSAGKPTPGTQGKIKLVKESSLSRQSKDSNPYATLPRASSVISTAEGTTRRTSIHDFLTKDSRLPISVDSPPAAADSNTTAASNVDKVQESRNSKSRSREQQSS", "notes": "Recombinant, made in E. coli; GEF-deficient mutant; also called TAT-GIV-CT-FA; FA"}}, "key": {"His-Gαi3 (GDP-loaded)": {"target": "T1, His-Gαi3 (GDP-loaded) (UniProt P08753 1-354)", "T1 construct": "Purified protein, GDP-loaded", "T1 sequence (P08753 whole entry)": "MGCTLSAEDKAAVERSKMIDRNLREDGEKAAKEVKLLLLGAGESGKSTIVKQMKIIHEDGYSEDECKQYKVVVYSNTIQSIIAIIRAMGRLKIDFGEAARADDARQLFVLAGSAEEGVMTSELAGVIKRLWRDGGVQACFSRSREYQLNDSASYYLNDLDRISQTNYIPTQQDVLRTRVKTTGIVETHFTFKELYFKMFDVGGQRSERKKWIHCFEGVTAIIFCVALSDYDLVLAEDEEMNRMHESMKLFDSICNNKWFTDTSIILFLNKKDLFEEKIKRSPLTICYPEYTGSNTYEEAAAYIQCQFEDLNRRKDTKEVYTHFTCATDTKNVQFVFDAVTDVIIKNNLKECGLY", "assay": "GST pulldown: GST-GIV-CT on glutathione-agarose beads with 0.01-3 µM His-Gαi3; anti-His band intensities fitted to a single-site hyperbola; three experiments"}, "GST-Gαi3 (GDP loaded)": {"target": "T2, GST-Gαi3 (GDP loaded) (rat, UniProt P08753 1-354)", "T2 construct": "not shown: glutathione S-transferase tag encoded by pGEX-4T-1", "T2 sequence (P08753 whole entry)": "as above", "assay": "GST pulldown with GDP-loaded GST-Gαi3, anti-His immunoblot"}}}
{"binder": "B1", "values": [{"measurement": "Kd", "setting": "His-Gαi3 (GDP-loaded)", "value": 240, "unit": "nM"}]}
{"binder": "B2", "values": [{"measurement": "binding result", "setting": "GST-Gαi3 (GDP loaded)", "value": "no binding"}]}
